This note sets out measurements from paper PMC12710124, “Pleomorphism in Wild-Type and Engineered PP7 Virus-Like Particles” (Small (Weinheim an der Bergstrasse, Germany), 2025).

As usually defined, the stoichiometry N is the number of molecules, sites or subunits per partner or assembly.

What all share (assay): cryo-EM structure; 3D reconstruction of purified VLPs self-assembled in the bacterial expression host; closed cages (T = 3, T = 4, D5, D5E, C2, C3) and tubes
The target of data set [1] is PP7-AY-PP7, PP7 coat protein dimer with AY linker (Pseudomonas phage PP7).
Data set [2] shares this target. The source holds these as a separate data set.
Data set [3] concerns the molecule itself.

Values joined by “and” are separate entries in the source; they are usually repeats but may differ in a detail not shown here. Equal values may be shown once. Read-outs that look alike come from different tables or passages of the source.

Turning to “PP7-AY-PP7, PP7 coat protein dimer with AY linker”, the stoichiometry N in data set [1] was found to be 102 copies; in data set [2], 87 copies.

B1: PP7 coat protein (wild-type, monomeric) (natural protein)
chain: MSKTIVLSVGEATRTLTEIQSTADRQIFEEKVGPLVGRLRLTASLRQNGAKTAYRVNLKLDQADVVDCSTSVCGELPKVRYTQVWSHDVTIVANSTEASRKSLYDLTKSLVATSQVEDLVVNLVPLGR
notes: Self-assembles in the expression host into VLPs; also called PP7 CP; PP7 capsid protein; source: bacterial expression host (E. coli), recombinantly expressed, purified as VLPs
In the case of B1, the “stoichiometry N” value in data set [3] is 150 coat proteins and 174 copies and 204 copies.
